Laboratory results from patent US20190092852A1 (Genentech, published 2019).
Read-outs that look alike come from different tables or passages of the source.

T1: cynomolgus monkey N-terminal 6-His-tagged and C-terminal Avi-tagged IL-33 (S112-T270) (cynomolgus monkey)
T1 chain: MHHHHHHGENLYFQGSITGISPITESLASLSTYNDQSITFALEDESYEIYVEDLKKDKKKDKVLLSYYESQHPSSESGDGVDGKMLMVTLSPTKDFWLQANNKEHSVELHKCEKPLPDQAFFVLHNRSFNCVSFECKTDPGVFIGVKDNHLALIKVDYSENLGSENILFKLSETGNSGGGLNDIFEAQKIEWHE

T2: cyno IL-33 N-His (cynomolgus monkey)
T2 chain: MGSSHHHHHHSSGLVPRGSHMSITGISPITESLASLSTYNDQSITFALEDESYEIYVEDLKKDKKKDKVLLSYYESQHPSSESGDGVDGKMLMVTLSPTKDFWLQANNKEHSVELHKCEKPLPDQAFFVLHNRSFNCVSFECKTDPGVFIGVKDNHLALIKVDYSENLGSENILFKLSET

T3: human IL-33 (R&D Systems, #3625-IL-010/CF) (human, UniProt O95760 112-270)
T3 construct: also called hIL-33; huIL-33
T3 sequence (looked up): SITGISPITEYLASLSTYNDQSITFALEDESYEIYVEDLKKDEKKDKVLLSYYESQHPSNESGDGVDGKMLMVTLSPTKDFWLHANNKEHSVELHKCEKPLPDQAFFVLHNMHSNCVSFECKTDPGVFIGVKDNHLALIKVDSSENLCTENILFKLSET

T4: biotinylated human IL-33 (human, UniProt O95760 112-270, biotin-labeled with EZ-LINK NHS-PEG4-Biotin)
T4 construct: also called biotin-huIL-33
T4 sequence (looked up): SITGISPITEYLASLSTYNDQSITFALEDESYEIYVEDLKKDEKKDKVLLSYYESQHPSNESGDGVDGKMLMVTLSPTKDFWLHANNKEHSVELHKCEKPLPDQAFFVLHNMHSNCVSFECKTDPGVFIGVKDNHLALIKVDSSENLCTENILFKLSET


Legend:
[1] = target: T1, cynomolgus monkey N-terminal …; experiment: cell-based or functional assay
cyno IL-33 N-His [2] = target: T2, cyno IL-33 N-His; experiment: SPR Biacore T200, 25 C
Outline: (§1)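 Antibodies captured via anti-Fc on CM5 chip; IL-33 injected at 3.7–100 nM (three-fold series), 4 min association, 10 min dissociation, 30 μl/min, ADA pH 7.4 buffer with 0.15 M NaCl, EDTA, Tween-20, at 25 °C or 37 °C. KD = koff/kon from 1:1 Langmuir fit; t1/2 = ln(2)/(60*koff).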

cyno IL-33 N-His [3] = target: T2, cyno IL-33 N-His; experiment: SPR Biacore T200, 37 C
Outline: as §1

[4] = target: T1, cynomolgus monkey N-terminal …; experiment: cell-based or functional assay
[5] = target: T3, human IL-33 (R&D Systems, …); experiment: SPR Biacore T200, 25 C
Outline: as §1

[6] = target: T3, human IL-33 (R&D Systems, …); experiment: SPR Biacore T200, 37 C
Outline: as §1

[7] = target: T3, human IL-33 (R&D Systems, …); experiment: cell-based or functional assay
[8] = target: T3, human IL-33 (R&D Systems, …); experiment: cell-based or functional assay; remark: listed apart in the source
[9] = target: T3, human IL-33 (R&D Systems, …); experiment: cell-based or functional assay; remark: listed apart in the source
[10] = target: T3, human IL-33 (R&D Systems, …); experiment: cell-based or functional assay; remark: listed apart in the source
biotinylated human IL-33 = target: T4, biotinylated human IL-33; experiment: competitive ELISA, biotin-huIL-33 to coated hST2-Fc
Experimental: The ability of the anti-IL-33 antibody 10C12.38.H6.87Y.58I IgG4 and each anti-IL-33 antibody listed in Table 5 (RG1-RG20) to block either human IL-33 or cyno IL-33 binding to human ST2 receptor was tested in a competitive binding ELISA. Briefly, 1 μg/ml of recombinant human ST2-Fc chimera protein prepared in coating buffer (50 mM sodium carbonate, pH 9.6) was coated on a 384-well MAXISORP® plate (Nalgene Nunc International; Rochester, N.Y.) and incubated overnight at 4° C. On the next day, non-specific binding was blocked with PBS containing 0.5% (w/v) solution of bovine serum albumin (BSA). Fixed concentrations of biotinylated human or cyno IL-33 prepared in assay buffer (25 mM PBS, pH 7.2, 0.1% BSA, 0.05% TWEEN®-20) were mixed with an equal volume of serially-diluted anti-IL-33 antibodies or assay buffer alone and incubated for 1 h at room temperature. The final assay concentrations of biotinylated human IL-33 or cyno IL-33 were 20 pM and 45 pM, respectively, and the final assay concentration of each antibody ranged from 0-300 nM. The pre-mixed solutions were added to the ST2-Fc coated plate and incubated for 1 h at room temperature. The binding of biotinylated IL-33 to coated ST2-Fc was detected by the sequential addition of Streptavidin Poly-HRP80 (Fitzgerald; Buckinghamshire, UK) and 3,3′,5,5′-tetramethyl benzidine (TMB) Microwell Peroxidase Substrate System (KPL; Gaithersburg, Md.). The absorbance (450 nm) was recorded using a […] ASCENT® plate reader (Thermo Scientific; Rockford, Ill.). The binding activity (%) of biotin-IL-33 to ST2 in the presence of anti-IL-33 was plotted as a function of antibody concentration. The data generated were fitted to a four-parameter equation to determine IC₅₀ values for each antibody (FIGS. 25A and 25B) using Prism software (Graphpad Software; La Jolla, Calif.). The maximum blocking (%) of each antibody was calculated as the ratio of the reduction in signal measured in the presence of antibody relative to the difference between the signal with IL-33 alone and background measurements.

[11] = target: T3, human IL-33 (R&D Systems, …); experiment: cell-based or functional assay; remark: listed apart in the source
[12] = target: T3, human IL-33 (R&D Systems, …); experiment: cell-based or functional assay; remark: listed apart in the source
[13] = target: T3, human IL-33 (R&D Systems, …); experiment: cell-based or functional assay; remark: listed apart in the source

| Kd (cyno IL-33 N-His [2]) | koff (cyno IL-33 N-His [2]) | kon (cyno IL-33 N-His [2]) | t1/2 (cyno IL-33 N-His [2]) | Kd (cyno IL-33 N-His [3]) | koff (cyno IL-33 N-His [3]) | kon (cyno IL-33 N-His [3]) | t1/2 (cyno IL-33 N-His [3]) | Kd [5] | koff [5] | kon [5] | t1/2 [5] | Kd [6] | koff [6] | kon [6] | t1/2 [6] | IC50; SEAP reporter (OD 620), HEK-BLUE IL-33/IL-1beta cells, 10 pM hIL-33 [7] | Ph-p38 MFI at 0.4 nM Ab (500 pM human IL-33, primary basophils) [9] | Ph-p38 MFI at 2 nM Ab (500 pM human IL-33, primary basophils) [10] | IC50 (biotinylated human IL-33) | Binder | also measured |
| --- | --- | --- | --- | --- | --- | --- | --- | --- | --- | --- | --- | --- | --- | --- | --- | --- | --- | --- | --- | --- | --- |
| 2.73 nM | 0.000988 s⁻¹ | 362000 M⁻¹ s⁻¹ | 12 min | 6.72 nM | 0.00505 s⁻¹ | 751000 M⁻¹ s⁻¹ | 2 min |  |  |  |  |  |  |  |  |  |  |  |  | H4H9675P (antibody, V domains shown) VH: EVQLVESGGNLEQPGGSLRLSCTASGFTFSRSAMNWVRRAPGKGLEWVSGISGSGGRTYYADSVKGRFTISRDNSKNTLYLQMNSLSAEDTAAYYCAKDSYTTSWYGGMDVWGHGTTVTVSS VL: DIQMTQSPSSVSASVGDRVTITCRASQGIFSWLAWYQQKPGKAPKLLIYAASSLQSGVPSRFSGSGSGTDFTLTISSLQPEDFAIYYCQQANSVPITFGQGTRLEIK | HEK-BLUE SEAP reporter, fold weaker than 10C12.38.H6.87Y.58I IgG4 [1]: 14 fold; IC50; SEAP reporter (OD 620), HEK-BLUE IL-33/IL-1beta cells, 5 pM cyno IL-33 (5pM cIL-33-Nhis) [4]: 5.7e-08 M |
| 14.9 nM | 0.00337 s⁻¹ | 227000 M⁻¹ s⁻¹ | 3 min | 42.7 nM | 0.0113 s⁻¹ | 265000 M⁻¹ s⁻¹ | 1 min | 0.941 nM | 0.000462 s⁻¹ | 491000 M⁻¹ s⁻¹ | 25 min | 0.726 nM | 0.000845 s⁻¹ | 1.16e+06 M⁻¹ s⁻¹ | 14 min | 3.7e-09 M | 149 MFI | 142 MFI | 1.1 nM | H4H9633P (antibody, IgG4, V domains shown, also called RG5) VH: EVQLVESGGGLVQPGGSLRLSCAASGFTFSSYVMSWVRQAPGKGLEWVSSISGNGGSTNYADSVKGRFTISRDNSKNTLFLEMNSLRAEDTAVYYCAKSLGTTTTFLGFDYWGQGTLVTVSS VL: DIQMTQSPSSVSASVGDRVTITCRASQGISSWLAWYQQKPGKAPKLLIYAASSLQSGVPSRFSGSGSGTYFTLTISSLQPEDFATYYCQQANSFPLTFGGGTKVEIK | IC50; IFN-gamma ELISA, primary human NK cells, 260 pM hIL-33 + IL-12 [8]: 4.1e-08 M; Maximum Blocking (biotinylated human IL-33): 68% |
| 54 nM | 0.0204 s⁻¹ | 379000 M⁻¹ s⁻¹ | 1 min | 547 nM | 0.000502 s⁻¹ | 916 M⁻¹ s⁻¹ | 23 min | 0.559 nM | 0.000632 s⁻¹ | 1.13e+06 M⁻¹ s⁻¹ | 18 min | 0.261 nM | 0.000738 s⁻¹ | 2.82e+06 M⁻¹ s⁻¹ | 16 min | 3.3e-11 M | 67 MFI | 38 MFI | 0.092 nM | H4H9629P (antibody, IgG4, V domains shown, also called RG4) VH: EVQLVESGGGLVQPGGSLRLSCAASGFTFRSFAMSWVRQAPGKGLELVSDLRTSGGSTYYADSVKGRLTISRDNSKNTLYLQMNSLRAEDTAVYYCAKSHYSTSWFGGFDYWGQGTLVTVSS VL: DIQMTQSPSSVSASVGDRVTITCRASQGFSSWLAWYQQKPGKAPKLLIYAASSLQSGVPSRFSGSGSGTDFTLTITNLQPEDFATYYCQQANSFPLTFGGGTKVEIK | IC50, IL-33-induced phospho-p38 in primary human basophils, 500 pM hIL-33 [11]: 3.6e-13 M; IC50 (read off the curve) [12]: 0.0003 to 0.0004 nM; IC50 (read off the curve) [13]: 0.0003 to 0.0004 nM; Maximum Blocking (biotinylated human IL-33): 82% |
